Assay results from IntAct's records for PubMed 21293379.

B1: Histone-lysine N-methyltransferase NSD2 (Homo sapiens), O96028-1 (parent)
chain: MEFSIKQSPLSVQSVVKCIKMKQAPEILGSANGKTPSCEVNRECSVFLSKAQLSSSLQEGVMQKFNGHDALPFIPADKLKDLTSRVFNGEPGAHDAKLRFESQEMKGIGTPPNTTPIKNGSPEIKLKITKTYMNGKPLFESSICGDSAADVSQSEENGQKPENKARRNRKRSIKYDSLLEQGLVEAALVSKISSPSDKKIPAKKESCPNTGRDKDHLLKYNVGDLVWSKVSGYPWWPCMVSADPLLHSYTKLKGQKKSARQYHVQFFGDAPERAWIFEKSLVAFEGEGQFEKLCQESAKQAPTKAEKIKLLKPISGKLRAQWEMGIVQAEEAASMSVEERKAKFTFLYVGDQLHLNPQVAKEAGIAAESLGEMAESSGVSEEAAENPKSVREECIPMKRRRRAKLCSSAETLESHPDIGKSTPQKTAEADPRRGVGSPPGRKKTTVSMPRSRKGDAASQFLVFCQKHRDEVVAEHPDASGEEIEELLRSQWSLLSEKQRARYNTKFALVAPVQAEEDSGNVNGKKRNHTKRIQDPTEDAEAEDTPRKRLRTDKHSLRKRDTITDKTARTSSYKAMEAASSLKSQAATKNLSDACKPLKKRNRASTAASSALGFSKSSSPSASLTENEVSDSPGDEPSESPYESADETQTEVSVSSKKSERGVTAKKEYVCQLCEKPGSLLLCEGPCCGAFHLACLGLSRRPEGRFTCSECASGIHSCFVCKESKTDVKRCVVTQCGKFYHEACVKKYPLTVFESRGFRCPLHSCVSCHASNPSNPRPSKGKMMRCVRCPVAYHSGDACLAAGCSVIASNSIICTAHFTARKGKRHHAHVNVSWCFVCSKGGSLLCCESCPAAFHPDCLNIEMPDGSWFCNDCRAGKKLHFQDIIWVKLGNYRWWPAEVCHPKNVPPNIQKMKHEIGEFPVFFFGSKDYYWTHQARVFPYMEGDRGSRYQGVRGIGRVFKNALQEAEARFREIKLQREARETQESERKPPPYKHIKVNKPYGKVQIYTADISEIPKCNCKPTDENPCGFDSECLNRMLMFECHPQVCPAGEFCQNQCFTKRQYPETKIIKTDGKGWGLVAKRDIRKGEFVNEYVGELIDEEECMARIKHAHENDITHFYMLTIDKDRIIDAGPKGNYSRFMNHSCQPNCETLKWTVNGDTRVGLFAVCDIPAGTELTFNYNLDCLGNEKTVCRCGASNCSGFLGDRPKTSTTLSSEEKGKKTKKKTRRRRAKGEGKRQSEDECFRCGDGGQLVLCDRKFCTKAYHLSCLGLGKRPFGKWECPWHHCDVCGKPSTSFCHLCPNSFCKEHQDGTAFSCTPDGRSYCCEHDLGAASVRSTKTEKPPPEPGKPKGKRRRRRGWRRVTEGK

Variants of: B1
Conditions: with mdc1_human MDC1, Q14676
Chain of mdc1_human MDC1, Q14676 (Q14676 whole entry): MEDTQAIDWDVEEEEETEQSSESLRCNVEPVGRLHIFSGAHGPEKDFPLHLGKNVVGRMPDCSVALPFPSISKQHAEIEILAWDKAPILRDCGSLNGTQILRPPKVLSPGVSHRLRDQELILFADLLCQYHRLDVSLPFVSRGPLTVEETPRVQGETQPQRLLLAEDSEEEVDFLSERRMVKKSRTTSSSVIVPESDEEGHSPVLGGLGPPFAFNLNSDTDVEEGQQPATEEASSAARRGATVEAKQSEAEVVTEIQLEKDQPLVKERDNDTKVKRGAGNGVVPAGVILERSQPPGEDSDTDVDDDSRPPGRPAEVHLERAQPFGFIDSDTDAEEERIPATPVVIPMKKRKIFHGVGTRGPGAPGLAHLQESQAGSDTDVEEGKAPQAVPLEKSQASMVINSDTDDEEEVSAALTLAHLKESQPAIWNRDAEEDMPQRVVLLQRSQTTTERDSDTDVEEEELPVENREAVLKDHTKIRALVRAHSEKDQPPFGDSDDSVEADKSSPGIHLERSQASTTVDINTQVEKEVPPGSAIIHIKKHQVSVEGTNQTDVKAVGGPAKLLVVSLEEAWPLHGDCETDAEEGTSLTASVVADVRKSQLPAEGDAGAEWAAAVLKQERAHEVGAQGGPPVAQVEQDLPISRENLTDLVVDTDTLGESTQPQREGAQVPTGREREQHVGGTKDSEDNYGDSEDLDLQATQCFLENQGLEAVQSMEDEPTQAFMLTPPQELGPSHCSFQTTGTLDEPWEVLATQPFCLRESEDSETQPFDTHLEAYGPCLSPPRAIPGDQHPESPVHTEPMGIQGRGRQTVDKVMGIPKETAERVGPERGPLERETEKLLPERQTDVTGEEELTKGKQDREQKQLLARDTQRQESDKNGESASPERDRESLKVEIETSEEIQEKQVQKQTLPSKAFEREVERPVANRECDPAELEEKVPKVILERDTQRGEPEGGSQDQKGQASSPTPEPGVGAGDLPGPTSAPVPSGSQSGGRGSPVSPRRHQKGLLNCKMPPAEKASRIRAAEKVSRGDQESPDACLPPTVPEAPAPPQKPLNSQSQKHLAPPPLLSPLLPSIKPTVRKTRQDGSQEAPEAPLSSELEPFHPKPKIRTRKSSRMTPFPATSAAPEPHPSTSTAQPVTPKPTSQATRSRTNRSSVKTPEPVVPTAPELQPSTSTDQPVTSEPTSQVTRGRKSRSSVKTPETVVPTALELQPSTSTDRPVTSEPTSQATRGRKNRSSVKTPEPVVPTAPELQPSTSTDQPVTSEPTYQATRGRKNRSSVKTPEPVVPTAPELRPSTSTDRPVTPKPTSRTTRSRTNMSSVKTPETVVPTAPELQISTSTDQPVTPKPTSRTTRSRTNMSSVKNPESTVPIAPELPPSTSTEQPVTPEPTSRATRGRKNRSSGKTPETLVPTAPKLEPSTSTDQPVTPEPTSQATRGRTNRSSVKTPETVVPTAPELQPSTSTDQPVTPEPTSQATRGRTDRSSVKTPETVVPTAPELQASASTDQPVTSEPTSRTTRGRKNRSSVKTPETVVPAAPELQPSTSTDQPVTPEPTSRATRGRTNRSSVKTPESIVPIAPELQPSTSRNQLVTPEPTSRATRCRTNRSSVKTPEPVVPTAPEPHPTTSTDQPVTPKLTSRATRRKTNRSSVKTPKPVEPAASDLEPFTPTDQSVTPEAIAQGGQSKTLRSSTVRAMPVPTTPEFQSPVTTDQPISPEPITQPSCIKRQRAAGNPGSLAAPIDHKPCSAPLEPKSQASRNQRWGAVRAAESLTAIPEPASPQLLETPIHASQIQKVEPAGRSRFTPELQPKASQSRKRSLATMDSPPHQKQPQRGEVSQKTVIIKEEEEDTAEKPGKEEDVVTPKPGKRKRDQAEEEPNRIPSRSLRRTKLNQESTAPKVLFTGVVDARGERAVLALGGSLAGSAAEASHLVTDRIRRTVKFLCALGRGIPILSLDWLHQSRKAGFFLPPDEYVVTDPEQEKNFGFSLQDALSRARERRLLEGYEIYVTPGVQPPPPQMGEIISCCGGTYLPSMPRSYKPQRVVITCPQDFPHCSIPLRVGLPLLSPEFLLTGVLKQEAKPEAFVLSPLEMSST

Q: With S102A as the variant, how does the “effect of a mutation on the interaction” value read?
A: The value was “disrupting interaction”.
